Laboratory results as given in patent publication US20260265392A1 (TSINGHUA UNIVERSITY, published 2026).

Legend:
[1] = target: T1, CXC motif chemokine receptor 4 (CXCR4) (human, UniProt P61073 1-352); experiment: immunofluorescence of endogenous CXCR4 on SJSA-1 cells with labelled fusion proteins; co-localization (FIG. 5A, 5B)
T1 construct: whole, on cells; In the assays CXCR4 is the endogenous receptor of human cells; also called chemokine receptor CXCR4; endogenous CXCR4
Description: (§1) Wherein, “Anti-DR5” and “Anti-CXCR4” respectively represent the fluorescence images of endogenous DR5 and CXCR4 obtained by immunofluorescence staining with DR5 antibody (Abcam, Catalog No. ab8416) and CXCR4 antibody (Protein Tech, Catalog No. 60042-1-Ig). […] The horizontal axis represents the relative distance along the straight path, and the vertical axis represents the relative fluorescence intensity measured at the corresponding position. […] The horizontal axis represents various recombinant protein treatment combinations with a final concentration of 100 nM. The vertical axis represents the fluorescence area corresponding to each spot.
(§2) The above recombinant protein combinations were added to the culture medium to a final concentration of 100 nM. The added culture medium was mixed, incubated at 37° C. for about 1 min, and then imaged by total internal reflection fluorescence microscopy (TIRF).
(§3) By the same method as in Example 2, the total internal reflection fluorescence microscopy (TIRF) imaging of the following recombinant protein combination against the human osteosarcoma cell line SJSA-1 was measured, and the results are shown in FIG. 5: [0136] Treatment group: combination of (SIM)₃-CNB (Red) and (SUM)₃-DNB (Green) [0137] Control group: combination of (SIM)₃ (Red) and (SUM)₃ (Green)

[2] = target: T2, recombinant protein (SUM)3-DNB (Alexa647 label in the imaging experiment only (site not stated); no label is stated for the apoptosis assays); experiment: fluorescence imaging of SJSA-1 cells; co-localization (FIG. 5A, 5B)
T2 construct: Fusion of a multivalent domain with a nanobody; also called (SUM)3-DNB (Green); fusion protein (SUM)3-DNB
Description: as §1, §2, §3

[3] = target: T1, CXC motif chemokine receptor 4 (CXCR4); experiment: immunofluorescence of endogenous CXCR4 on SJSA-1 cells with labelled fusion proteins; co-localization (FIG. 3A, 3B)
Description: (§4) Wherein, “Anti DR5” and “Anti CXCR4” respectively represent the fluorescence images of endogenous DR5 and CXCR4 obtained by immunofluorescence staining with DR5 antibody (Abcam, ab8416) and CXCR4 antibody (Protein Tech, 60042-1-Ig). […] The horizontal axis represents the relative distance along the straight path, and the vertical axis represents the relative fluorescence intensity measured at the corresponding position. […] From left to right, they correspond to treatment groups 1 to 3 listed in Example 2. […] The horizontal axis represents various recombinant protein treatment combinations with a final concentration of 100 nM. The vertical axis represents the fluorescence area corresponding to each spot.
as §2

[4] = target: T3, recombinant protein (SUM)5-DNB (Alexa647 label in the imaging experiment (site not stated)); experiment: fluorescence imaging of SJSA-1 cells, 100 nM each; co-localization (FIG. 3A, 3B)
T3 construct: Fusion of a multivalent domain with a nanobody; also called (SUM)5-DNB (Green)
Description: as §4, §2

[5] = target: T1, CXC motif chemokine receptor 4 (CXCR4); experiment: laser confocal imaging of SJSA-1 cells: membrane puncta only with ligand-fused domains; the receptor was not stained in this example
Method: (§5) Human osteosarcoma SJSA-1 cells (purchased from ATCC (https://www.atcc.org/)) were treated with the above-labeled recombinant proteins or control solution, and then immediately subjected to laser confocal scanning microscopy imaging. The steps are as follows:
(§6) Human osteosarcoma cell line SJSA-1 was cultured in RMPI-1640 medium containing 10% fetal bovine serum (FBS, purchased from Gibco) and 1× penicillin-streptomycin (purchased from HyClone) to 70%-80% confluence. The following combinations of recombinant proteins were added to the culture medium at the same time: (1) (SIM)₆-R4L (Red) and (SUM)₅ (Green), (2) (SIM)₆ (Red) and (SUM)₅-TRAIL (Green), (3) (SIM)₆-R4L (Red) and (SUM)₅-TRAIL (Green), (4) (SIM)₆ (Red) and (SUM)₅ (Green), to a final concentration of 100 nM respectively. The culture medium after adding the recombinant protein was mixed, incubated at 37° C. for about 1 min, and then imaged using a NIKON AIR HD25 laser confocal microscope (purchased from Nikon, Inc.).

[6] = target: T4, multivalent domain (SUM)5 (Alexa647 label in the imaging experiment (site not stated)); experiment: laser confocal imaging of SJSA-1 cells with (SIM)6-R4L (Red) and (SUM)5 (Green), 100 nM each (combination 1, FIG. 2A); co-localization
T4 construct: also called (SUM)5 (Green)
Method: as §5, §6

T1 sequence (P61073 whole entry, the tested form may be a part): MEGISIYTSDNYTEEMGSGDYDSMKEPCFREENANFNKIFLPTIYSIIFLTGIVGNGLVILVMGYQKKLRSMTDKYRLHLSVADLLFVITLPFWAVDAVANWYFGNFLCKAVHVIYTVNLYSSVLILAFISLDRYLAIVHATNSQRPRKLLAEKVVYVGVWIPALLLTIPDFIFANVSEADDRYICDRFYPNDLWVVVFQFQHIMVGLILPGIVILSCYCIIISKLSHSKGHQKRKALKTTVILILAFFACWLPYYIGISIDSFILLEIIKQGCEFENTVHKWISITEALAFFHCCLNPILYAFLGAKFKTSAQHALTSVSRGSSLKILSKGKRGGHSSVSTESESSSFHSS
T4 sequence (chain, as listed by the source): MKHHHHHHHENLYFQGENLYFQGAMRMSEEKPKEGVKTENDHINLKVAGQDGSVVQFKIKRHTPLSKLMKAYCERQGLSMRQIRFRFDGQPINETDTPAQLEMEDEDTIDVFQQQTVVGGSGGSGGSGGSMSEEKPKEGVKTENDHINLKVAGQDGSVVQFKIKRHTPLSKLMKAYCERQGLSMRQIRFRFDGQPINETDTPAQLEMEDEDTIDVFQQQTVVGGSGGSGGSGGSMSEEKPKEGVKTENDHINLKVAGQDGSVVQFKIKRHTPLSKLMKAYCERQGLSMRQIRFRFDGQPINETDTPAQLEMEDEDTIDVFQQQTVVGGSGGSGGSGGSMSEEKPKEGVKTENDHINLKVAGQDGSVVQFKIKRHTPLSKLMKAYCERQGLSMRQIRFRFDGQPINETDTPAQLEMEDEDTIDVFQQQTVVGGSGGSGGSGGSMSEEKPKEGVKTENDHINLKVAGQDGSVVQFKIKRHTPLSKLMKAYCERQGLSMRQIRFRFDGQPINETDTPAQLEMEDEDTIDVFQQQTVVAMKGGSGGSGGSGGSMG
T2 sequence (chain, as listed by the source): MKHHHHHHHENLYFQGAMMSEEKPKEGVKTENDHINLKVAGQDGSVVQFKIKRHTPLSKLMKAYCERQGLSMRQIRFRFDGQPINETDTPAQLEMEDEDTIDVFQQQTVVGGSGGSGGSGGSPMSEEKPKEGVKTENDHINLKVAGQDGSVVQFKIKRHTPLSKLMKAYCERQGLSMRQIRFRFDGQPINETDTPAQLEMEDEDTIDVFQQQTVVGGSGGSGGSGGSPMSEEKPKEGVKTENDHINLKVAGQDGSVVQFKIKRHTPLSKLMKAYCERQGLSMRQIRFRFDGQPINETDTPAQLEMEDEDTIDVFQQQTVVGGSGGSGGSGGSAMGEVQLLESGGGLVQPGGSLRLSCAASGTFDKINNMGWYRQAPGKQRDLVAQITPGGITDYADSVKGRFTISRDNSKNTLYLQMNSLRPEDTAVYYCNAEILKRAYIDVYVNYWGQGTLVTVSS
T3 sequence (chain, as listed by the source): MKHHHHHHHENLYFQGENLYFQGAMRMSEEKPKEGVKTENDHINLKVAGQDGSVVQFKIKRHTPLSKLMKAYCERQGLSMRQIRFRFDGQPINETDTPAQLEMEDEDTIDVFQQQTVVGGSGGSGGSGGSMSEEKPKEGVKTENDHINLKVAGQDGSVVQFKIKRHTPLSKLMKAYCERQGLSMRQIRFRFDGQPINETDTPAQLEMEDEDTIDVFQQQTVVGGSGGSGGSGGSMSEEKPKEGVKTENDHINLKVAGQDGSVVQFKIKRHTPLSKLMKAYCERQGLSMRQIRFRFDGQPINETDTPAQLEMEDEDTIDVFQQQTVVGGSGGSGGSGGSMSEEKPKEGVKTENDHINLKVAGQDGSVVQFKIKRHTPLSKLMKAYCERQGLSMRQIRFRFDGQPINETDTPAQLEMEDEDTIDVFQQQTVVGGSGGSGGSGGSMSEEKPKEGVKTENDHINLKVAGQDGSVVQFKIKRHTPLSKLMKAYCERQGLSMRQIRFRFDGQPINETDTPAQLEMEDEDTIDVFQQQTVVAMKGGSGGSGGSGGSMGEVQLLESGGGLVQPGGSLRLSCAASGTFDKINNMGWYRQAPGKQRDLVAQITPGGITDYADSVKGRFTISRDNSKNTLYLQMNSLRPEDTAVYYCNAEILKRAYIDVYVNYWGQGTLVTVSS

B1: recombinant protein (SIM)3-CNB (VHH)
chain: MKHHHHHHHENLYFQGAMKVDVIDLTIESSSDEEEDPPAKRGGSGGSGGSGGSMMKVDVIDLTIESSSDEEEDPPAKRGGSGGSGGSGGSMMKVDVIDLTIESSSDEEEDPPAKRGGSGGSGGSGGSMGEVQLMESGGGLVQAGGSLRLSCAASGRTFNNYAMGWFRRAPKGEREFVAAITRSGVRSGVSAIYGDSVKDRFTISRDNAKNTLYLQMNSLKPEDTAVYTCAASAIGSGALRRFEYDYSGQGTQVTVSS
modifications: Alexa594 label in the imaging experiment (site not stated)
notes: Fusion of a multivalent domain with a nanobody; also called (SIM)3-CNB (Red); fusion protein (SIM)3-CNB
B1: binds [1]; binds [2].

B2: recombinant protein (SIM)6-CNB (VHH)
chain: MKHHHHHHHENLYFQGAMSSKVDVIDLTIESSSDEEEDPPAKRGGSGGSGGSGGSKVDVIDLTIESSSDEEEDPPAKRGGSGGSGGSGGSKVDVIDLTIESSSDEEEDPPAKRGAMKGGSGGSGGSGGSMSSKVDVIDLTIESSSDEEEDPPAKRGGSVGSGGSGGSKVDVIDLTIESSSDEEEDPPAKRGGSGGSGGRGGSKVDVIDLTIESSSDEEEDPPAKRGAMRCWGGSGGSGGSGGSMGEVQLMESGGGLVQAGGSLRLSCAASGRTFNNYAMGWFRRAPKGEREFVAAITRSGVRSGVSAIYGDSVKDRFTISRDNAKNTLYLQMNSLKPEDTAVYTCAASAIGSGALRRFEYDYSGQGTQVTVSS
modifications: Alexa594 label in the imaging experiment (site not stated)
notes: Fusion of a multivalent domain with a nanobody; also called (SIM)6-CNB (Red)
B2: binds [3]; binds [4].

B3: recombinant protein (SIM)6-R4L (ligand)
chain: MKHHHHHHHENLYFQGAMSSKVDVIDLTIESSSDEEEDPPAKRGGSGGSGGSGGSKVDVIDLTIESSSDEEEDPPAKRGGSGGSGGSGGSKVDVIDLTIESSSDEEEDPPAKRGAMKGGSGGSGGSGGSMSSKVDVIDLTIESSSDEEEDPPAKRGGSVGSGGSGGSKVDVIDLTIESSSDEEEDPPAKRGGSGGSGGRGGSKVDVIDLTIESSSDEEEDPPAKRGAMRCWGGSGGSGGSGGSMGMCYRKCRGGRRWCYQKCGGSGGSGGSGGS
modifications: Alexa594 label in the imaging experiment (site not stated)
notes: also called (SIM)6-R4L (Red)
B3: binds [5]; binds [6].
